Laboratory results published in patent publication US20060183700A1, “Cgrp binding nucleic acids” (NOXXON Pharma AG, published 2006).
Like-named read-outs stand apart in the source and are kept apart here. Where no end group is shown, it is not given here.

Columns and labels:
[1] = biological target: T1, D-CGRP (biotinylated, all-D alpha-calcitonin gene-related peptide) (Rattus norvegicus) (UniProt P01256); settings: 2'-F pyrimidines
T1 sequence: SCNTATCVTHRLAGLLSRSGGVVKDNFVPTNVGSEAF

[2] = biological target: T2, alpha-CGRP (L) (Homo sapiens) (UniProt P06881); test: ITC; settings: L-RNA; 37 C, activity 80%
T2 sequence: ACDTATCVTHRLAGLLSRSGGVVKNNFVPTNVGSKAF

[3] = biological target: T1, D-CGRP (biotinylated, all-D alpha-calcitonin gene-related peptide) (Rattus norvegicus); test: pulldown; settings: 2'-F pyrimidines, bead assay, 37 C, unit uM, probably nM
[4] = biological target: T1, D-CGRP (biotinylated, all-D alpha-calcitonin gene-related peptide) (Rattus norvegicus); test: SPR; settings: 2'-F pyrimidines; clone shortened by two nucleotides; Biacore and ITC; higher by factor two at 37 C
[5] = biological target: T3, calcitonin receptor on SK-N-MC cells (human) (UniProt P30988); test: cell-based or functional assay
T3 sequence (looked up): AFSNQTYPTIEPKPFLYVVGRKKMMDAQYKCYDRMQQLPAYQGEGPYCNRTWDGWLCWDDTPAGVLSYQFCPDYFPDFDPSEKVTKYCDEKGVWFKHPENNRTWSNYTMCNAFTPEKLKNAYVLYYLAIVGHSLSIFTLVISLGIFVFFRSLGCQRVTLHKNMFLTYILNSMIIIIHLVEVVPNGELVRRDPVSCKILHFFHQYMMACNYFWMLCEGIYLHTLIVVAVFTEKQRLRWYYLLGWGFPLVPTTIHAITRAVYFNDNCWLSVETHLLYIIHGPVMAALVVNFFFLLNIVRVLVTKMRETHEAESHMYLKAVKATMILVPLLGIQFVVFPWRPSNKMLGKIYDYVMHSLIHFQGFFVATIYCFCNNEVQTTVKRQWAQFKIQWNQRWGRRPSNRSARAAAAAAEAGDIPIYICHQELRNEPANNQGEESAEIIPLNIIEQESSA

[6] = biological target: CGRP receptor on SK-N-MC cells; test: cell-based or functional assay
[7] = biological target: calcitonin receptor-like receptor (CRLR) on SK-N-MC cells (human) (UniProt Q16602); test: cell-based or functional assay
[8] = biological target: CGRP receptor on SK-N-MC cells; test: cell-based or functional assay; remark: listed apart in the source
[9] = biological target: T4, CGRP (biotinylated) (Rattus norvegicus, UniProt P01256 P01256:83-119); test: SPR; KD in narrow band around G12; settings: protein: synthetic; tags: biotin; synthetic peptide, Jerini
T4 chain: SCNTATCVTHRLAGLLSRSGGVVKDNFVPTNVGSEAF

[10] = biological target: T3, calcitonin receptor on SK-N-MC cells (human); test: cell-based or functional assay; remark: listed apart in the source

Chain of calcitonin receptor-like receptor (CRLR) on SK-N-MC cells (human) (Q16602 23-461): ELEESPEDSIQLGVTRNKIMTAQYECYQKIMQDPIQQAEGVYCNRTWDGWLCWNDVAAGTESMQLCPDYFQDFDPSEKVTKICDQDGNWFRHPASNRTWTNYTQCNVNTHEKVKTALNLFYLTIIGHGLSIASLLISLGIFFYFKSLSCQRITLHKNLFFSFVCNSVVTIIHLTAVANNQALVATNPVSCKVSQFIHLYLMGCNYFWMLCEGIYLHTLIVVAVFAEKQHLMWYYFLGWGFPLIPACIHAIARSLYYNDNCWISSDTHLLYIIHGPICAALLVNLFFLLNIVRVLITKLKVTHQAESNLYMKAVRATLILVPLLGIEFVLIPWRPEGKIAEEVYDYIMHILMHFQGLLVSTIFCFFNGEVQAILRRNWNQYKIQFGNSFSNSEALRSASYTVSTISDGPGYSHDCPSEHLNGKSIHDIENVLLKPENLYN

With “CGCAGCCUUCACUGCAGUGACGCACGUAUGAUAGUUUCCAUUUUGGACUCCUGCG [732_045]” the Kd [1] was 30000 nM.

In the case of “CGCUCAGCCUUCACUGCAGUGACGCACGUAUGAUAGUUUCCAUUUUGGACUCCUGGGCG [732_096]”, the Kd [1] is reported as 30000 nM.

“GGACUGAUGGCGCGGUCCUAUUACGCCGAGAAGGGAGUGGGGGA [L097 (NOX-504-097) spiegelmer]” showed a Kd [2] of 0.052 µM.

“GGAGCUCAGCCUUCACUGCAGUGACGCACGUAUGAUAGUUUCCAUUUUGGACUCCUGGGCACCACGGUCGGAUCCAC [clone 732]” gave a Kd [3] of 23 µM, a Kd [4] of 10000 nM and a Kd ([1]; 666 with G20-A21 excised (in analogy to clone 732)) of 20000 nM.

“GGAGCUCAGCCUUCACUGCGAAGUGACGCACGUAUGAUAGUUUCCAUUUUGGACUCCUGGGCACCACGGUCGGAUCCAC [clone 666]” was tested, and the Kd ([1]; unit uM, probably misprint for nM, method not specified here (Biacore/ITC in Ex. 1)) was 10000 nM.

“GGCAGCCUUCACUGCAGUGACGCACGUAUGAUAGUUUCCAAG / CUUGGACUCCUGCC [732_071a+732_071b]” showed a Kd ([1]; two-strand binder) of 100000 nM.

Molecule “GGCAGCCUUCACUGCAGUGACGCACGUAUGAUAGUUUCCAUUUUGGACUCCUGCC [732_026]” has a Kd ([1]; stem shortened to five base pairs, FIG. 7) of 30000 nM.

“GGCAGCCUUCCUGCAGGACGCACGUAUGAUAGUUUCCUUUGGACUCCUGCC [732_100]” was tested, and the Kd ([1]; 51mer) was 75000 nM.

For “GGCAGCCUUCCUGCAGGACGCACGUAUGAUAGUUUGCUUUGCACUCCUGCC [732_104]”, the Kd [1] was 40000 nM.

“GGCAGCCUUGCUGCAGCACGCACGUAUGAUAGUUUCCUUUGGACUCCUGCC [732_103]” was tested, and the Kd [1] was 20000 nM.

Work on “GGCUCAGCCUUCACUGCAGUGACGCACGUAUGAUAGUUUCCAUUUUGGACUCCUGGGCC [732_029]” yielded a Kd [1] of 30000 nM.

For “human amylin (from UniProt P10997 34-70) (peptide)”, the EC50, cAMP production in SK-N-MC cells [5] was 3 µM.

Molecule “human α-CGRP (from UniProt P06881 83-119) (peptide)” has an EC50, intracellular cAMP in SK-N-MC cells [6] of 1 µM.

B1: human adrenomedullin (peptide, UniProt P35318 95-146, looked up)
peptide: YRQSMNNFQGLRSFGCRFGTCTVQKLAHQIYQFTDKDKDNVAPRSKISPQGY
For B1, the EC50, cAMP production in SK-N-MC cells [7] was 30 µM and the EC50, intracellular cAMP in SK-N-MC cells [7] was 0.03 µM.

Work on SCNTATCVTHRLAGLLSRSGGVVKDNFVPTNVGSEAF (peptide, UniProt P01256 83-119, looked up, ends and bridges not checked; cysteine pairing not given here) [rat α-CGRP (calcitonin gene-related peptide I, rat)] yielded an EC50, intracellular cAMP in SK-N-MC cells [8] of 1 µM and a cAMP formation in SK-N-MC cells, half-maximum activation [8] of 1 nM.

Molecule ACNTATCVTHRLAGLLSRSGGMVKSNFVPTNVGSKAF (peptide, UniProt P10092 82-118, looked up, ends and bridges not checked; cysteine pairing not given here) [human β-CGRP (calcitonin gene-related peptide II)] has an EC50, intracellular cAMP in SK-N-MC cells [8] of 1 µM.

B2: G12a (ssRNA)
RNA: GGAGCUCAGCCUUCACUGCAUCGAGGCAUCCAAGUUAUAGGAAUAGGGUGGCUUGAAGGGCACCACGGUCGGAUCCAG
B2: binds [9].

B3: G12b (ssRNA)
RNA: GGAGCUCAGCCUUCACUGCAUCGAGGCAUCCAAGUUAUAGGAAUAGGGUGGCUUGAAGGGCACCACGGUCGGAUCCAG
B3: binds [9].

With KCNTATCATQRLANFLVRSSNNLGPVLPPTNVGSNTY (peptide, UniProt P12969 38-74, looked up) [rat amylin] the EC50, cAMP production in SK-N-MC cells [10] was 1 µM.

B4: G12c (ssRNA)
RNA: GGAGCUCAGCCUUCACUGCAUCGAGGCGAUCCAAGUUGAGGAAUGGGGUGGCUUGGAGGGCACCACGGUCGGAUCCAG
B4: binds [9].

B5: G12d (ssRNA)
RNA: GGAGCUCAGCCUUCACUGCAUCGAAGGCGAUCCAAGUUGUAAGAAUGGGGGUGGCUUGGAGGGCACCACGGUCGGAUCCAG
B5: binds [9].

Work on YRQSMNQGSRSTGCRFGTCTMQKLAHQIYQFTDKDKDGMAPRNKISPQGY (peptide, UniProt P43145 94-143, looked up) [rat adrenomedullin] yielded an EC50, cAMP production in SK-N-MC cells [7] of 30 µM and an EC50, intracellular cAMP in SK-N-MC cells [7] of 0.03 µM.

B6: G12f (ssRNA)
RNA: GGAGCUCAGCCUUCACUGCAUCGAGGGCGAUCCAAGUUGUAGGAAUGGGGUGGCUUGGAGGGCACCACGGUCGGAUCCAG
B6: binds [9].

B7: G12e (ssRNA)
RNA: GGAGCUCAGCCUUCACUGCAUCGAGGCGAUCCAAGUUGUAGGAAUUGGAUGACUUGGAGGGCACCACGGUCGGAUCCAG
B7: binds [9].

B8: G12g (ssRNA)
RNA: GGAGCUCAGCCUUCACUGCAUCGAAGCGAUCCAAGUUGUAGGAAUGGGGUAGCUUGGAGGGCACCACGGUCGGAUCCAG
B8: binds [9].
